Reference: patent US20250179196A1 (Janssen / Centocor, published 2025)

T1: Recombinant human IL-23 receptor (IL-23R) extracellular domain (ECD) protein (human, UniProt Q5VWK5 24-355)
T1 construct: also called human IL-23R ECD; hu IL-23R ECD
T1 sequence: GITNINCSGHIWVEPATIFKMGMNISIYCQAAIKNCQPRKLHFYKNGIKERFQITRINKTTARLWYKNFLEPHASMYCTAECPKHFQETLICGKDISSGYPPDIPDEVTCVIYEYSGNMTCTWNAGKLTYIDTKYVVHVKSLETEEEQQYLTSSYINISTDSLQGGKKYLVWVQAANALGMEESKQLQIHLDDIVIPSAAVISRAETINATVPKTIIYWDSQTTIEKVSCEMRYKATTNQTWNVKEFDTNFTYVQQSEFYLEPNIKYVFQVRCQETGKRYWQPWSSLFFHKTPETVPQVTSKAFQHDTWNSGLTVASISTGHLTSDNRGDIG

T2: rat IL-23R extracellular domain (ECD) protein (rat)
T2 construct: also called rat IL-23R ECD; F1LX96 amino acids 24-354
T2 chain: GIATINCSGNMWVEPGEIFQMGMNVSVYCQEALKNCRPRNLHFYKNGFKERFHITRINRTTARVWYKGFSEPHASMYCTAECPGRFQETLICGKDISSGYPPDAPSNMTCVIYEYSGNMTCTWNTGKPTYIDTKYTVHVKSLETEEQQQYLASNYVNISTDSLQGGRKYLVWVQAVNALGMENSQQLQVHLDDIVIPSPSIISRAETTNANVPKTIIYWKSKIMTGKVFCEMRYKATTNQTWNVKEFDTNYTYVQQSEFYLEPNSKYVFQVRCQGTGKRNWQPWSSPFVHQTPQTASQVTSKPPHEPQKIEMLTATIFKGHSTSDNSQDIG

T3: human IL-23R on the cell surface (human, UniProt Q5VWK5 24-629)
T3 construct: whole, on cells; also called cell surface human IL-23R; IL-23R on iLite cells, HEK-IL-23R cells and primary human immune cells
T3 sequence (looked up): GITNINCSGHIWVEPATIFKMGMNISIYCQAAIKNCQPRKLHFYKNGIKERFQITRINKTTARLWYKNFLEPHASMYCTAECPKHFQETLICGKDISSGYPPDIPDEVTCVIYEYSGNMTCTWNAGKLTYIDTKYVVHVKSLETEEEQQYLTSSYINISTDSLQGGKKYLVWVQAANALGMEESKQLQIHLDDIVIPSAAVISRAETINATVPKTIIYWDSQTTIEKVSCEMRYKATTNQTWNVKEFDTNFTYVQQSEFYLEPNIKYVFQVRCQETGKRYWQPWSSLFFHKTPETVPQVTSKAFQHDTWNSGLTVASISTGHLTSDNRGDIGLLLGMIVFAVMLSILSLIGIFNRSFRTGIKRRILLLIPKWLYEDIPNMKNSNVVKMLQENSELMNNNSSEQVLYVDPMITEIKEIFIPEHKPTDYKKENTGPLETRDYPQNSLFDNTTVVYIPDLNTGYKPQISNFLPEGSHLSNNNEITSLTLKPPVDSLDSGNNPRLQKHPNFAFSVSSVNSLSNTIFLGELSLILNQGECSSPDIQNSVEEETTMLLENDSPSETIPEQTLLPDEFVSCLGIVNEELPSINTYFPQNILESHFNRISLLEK

T4: human IL-23R expressed on the cell surface of stably transfected iLite and HEK cell lines (human, UniProt Q5VWK5 24-629)
T4 construct: whole, on cells; Same receptor on two transfected cell lines; the cell line is named under assay; also called human IL-23R iLite cells; human IL-23R HEK cells
T4 sequence (looked up): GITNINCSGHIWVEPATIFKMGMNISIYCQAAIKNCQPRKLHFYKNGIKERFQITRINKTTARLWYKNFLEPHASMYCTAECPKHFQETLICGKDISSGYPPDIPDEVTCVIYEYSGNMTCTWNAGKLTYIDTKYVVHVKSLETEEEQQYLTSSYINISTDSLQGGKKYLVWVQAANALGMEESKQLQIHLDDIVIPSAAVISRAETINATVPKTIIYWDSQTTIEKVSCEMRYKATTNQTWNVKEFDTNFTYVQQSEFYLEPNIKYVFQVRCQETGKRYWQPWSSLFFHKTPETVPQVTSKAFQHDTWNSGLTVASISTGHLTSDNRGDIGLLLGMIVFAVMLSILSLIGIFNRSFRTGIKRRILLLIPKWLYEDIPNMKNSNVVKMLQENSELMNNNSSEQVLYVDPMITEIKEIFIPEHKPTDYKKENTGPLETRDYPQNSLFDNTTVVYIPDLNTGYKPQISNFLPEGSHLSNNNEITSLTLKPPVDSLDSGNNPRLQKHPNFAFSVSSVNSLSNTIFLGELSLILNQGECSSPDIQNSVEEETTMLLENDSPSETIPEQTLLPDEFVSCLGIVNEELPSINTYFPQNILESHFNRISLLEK

T5: human IL-23R extracellular domain (ECD) protein (human, UniProt Q5VWK5 24-355)
T5 construct: Recombinant ECD; also called hu IL-23R ECD
T5 sequence: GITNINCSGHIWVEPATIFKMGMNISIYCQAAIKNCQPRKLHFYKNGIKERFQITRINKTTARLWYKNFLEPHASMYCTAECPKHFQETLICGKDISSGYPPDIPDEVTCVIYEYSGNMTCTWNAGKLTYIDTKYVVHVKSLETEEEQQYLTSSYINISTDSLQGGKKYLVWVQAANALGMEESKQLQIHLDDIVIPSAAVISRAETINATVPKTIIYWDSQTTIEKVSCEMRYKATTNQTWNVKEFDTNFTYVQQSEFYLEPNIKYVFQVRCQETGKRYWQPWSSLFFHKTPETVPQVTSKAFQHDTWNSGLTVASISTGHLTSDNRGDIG


How the values were obtained:
[1] = target: T1, Recombinant human IL-23 receptor …; test: SPR Biacore 8K, supernatant, analysis 1
Procedure, shortened: (§1)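 Kinetics fitted to a 1:1 Langmuir model gave on-rate, off-rate and KD. Human or rat IL-23R ECD flowed over captured mAbs (~150 RU) at 0.8–500 nM, 5-fold dilutions: 3 min binding at 50 μL/min, then 30 min buffer, 25 °C, HBS-P+ plus 100 μg/ml BSA.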

[2] = target: T1, Recombinant human IL-23 receptor …; test: SPR Biacore 8K, supernatant, analysis 2
Procedure, shortened: as §1

[3] = target: T2, rat IL-23R extracellular domain (ECD) …; test: SPR Biacore 8K, supernatant
Procedure, shortened: as §1

[4] = target: T3, human IL-23R on the cell surface; test: flow cytometry, HEK-IL-23R cells (Expt E)
[5] = target: T4, human IL-23R expressed on the cell …; test: flow cytometry on human IL-23R iLite cells, Expt B (1-point)
Description: Human IL-23R iLiTe cell single concentration mAb Binding. Anti-IL-23R mouse IgG₂ₐ mAbs derived from phage panning were tested for binding to human IL-23R expressing iLiTe cells, where a PE conjugated anti mouse secondary antibody detected mAbs bound to the receptor on the cells. […] The next day 100,000 cells were added to each well of a 96 well V bottom plate (Costar, Catalog #3357), centrifuged at 450× gravity for 2 minutes, and then supernatants were decanted. […] Cells were washed by adding 100 μL/well of Stain Buffer followed by centrifugation and decanting of the supernatants. Cells were resuspended in 100 μL/well of Stain Buffer and analyzed on the Becton Dickenson LSR II FACS instrument with HTS module. Data was analyzed using FlowJo software (Treestar) to obtain geometric mean fluorescence intensities.

[6] = target: T4, human IL-23R expressed on the cell …; test: flow cytometry on human IL-23R iLite cells, Expt A (1-point)
Description: Human IL-23R iLiTe cell single concentration mAb Binding. Anti-IL-23R mouse IgG₂ₐ mAbs derived from phage panning were tested for binding to human IL-23R expressing iLiTe cells, where a PE conjugated anti mouse secondary antibody detected mAbs bound to the receptor on the cells. […] The next day 100,000 cells were added to each well of a 96 well V bottom plate (Costar, Catalog #3357), centrifuged at 450× gravity for 2 minutes, and then supernatants were decanted. […] Antibodies diluted to 3 μg/mL in Stain Buffer (BSA) (BD Pharmagen, Catalog #554657) were added at 100 μL/well and incubated on ice for 50 minutes, then plates were centrifuged and supernatants were decanted. […] Cells were washed by adding 100 μL/well of Stain Buffer followed by centrifugation and decanting of the supernatants. Cells were resuspended in 100 μL/well of Stain Buffer and analyzed on the Becton Dickenson LSR II FACS instrument with HTS module. Data was analyzed using FlowJo software (Treestar) to obtain geometric mean fluorescence intensities.

[7] = target: T4, human IL-23R expressed on the cell …; test: flow cytometry on human IL-23R HEK cells, Expt E (11-point, 384well)
Procedure, shortened: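 Antibody bound to HEK-IL-23R cells 30 min at 37 °C over 11 concentrations; after washes, Sytox Green added and cells run on iQue. Geometric MFI of 647 detection antibody on single viable cells fitted by variable-slope dose–response.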

[8] = target: T4, human IL-23R expressed on the cell …; test: flow cytometry on human IL-23R iLite cells, Expt C (12-point), Gate 2
Description: (§2) Human IL-23R iLiTe cell concentration response mAb binding. […] The next day 100,000 cells were added to each well of a 96 well V bottom plate (Costar, Catalog #3357), centrifuged at 450× gravity for 2 minutes, and then supernatants were decanted. Antibodies were diluted in Stain Buffer (BSA) (BD Pharmagen, Catalog #554657) and added at 50 μL/well, and mixed. Plates were incubated on ice for 50 minutes, then plates were centrifuged and supernatants were decanted. […] Cells were washed by adding 200 μL/well of Stain Buffer followed by centrifugation and decanting of the supernatants. Cells were resuspended in 100 μL/well of Stain Buffer, transferred in quadruplicate to a 384 well plate (Greiner, Catalog #781281) and analyzed on the Becton Dickenson LSR II FACS instrument with HTS module. Data was analyzed using FlowJo software (Treestar) to obtain geometric mean fluorescence intensities, and geometric mean fluorescence intensities were plotted over log mAb concentrations fitted with a sigmoidal dose response curve with variable slope using GraphPad Prism.

[9] = target: T4, human IL-23R expressed on the cell …; test: flow cytometry on human IL-23R iLite cells, Expt C (12-point), Gate 1 + 2
Description: as §2

[10] = target: T5, human IL-23R extracellular domain (ECD) …; test: column 'Affinity to hu IL-23R ECD' (summary of SPR data)

Binder | Kd [1] | koff [1] | kon [1] | Kd [2] | koff [2] | kon [2] | binding result [3] | EC50 [4] | MFI @ 0.7 nM [5] | MFI @ 20 nM [6] | MFI (6.4 nM) [7] | EC50 [8] | EC50 [9] | Kd [10]
I23RB71 (antibody, mouse IgG2a, kappa, V domains shown, mouse immunization; mouse IgG2a/kappa) VH: DVQLQESGPDLVKPSQSLSLTCTVTDYSITRGYNWHWIRQFPGNKLEWMGYIHYSGSTNYNPSLKSRISITRDTSKNQFFLQLNSVTTEDTATYYCARQYGLKAMDYWGQGTSVTVSS VL: DIVMTQSHKFMSTSVGDRVSITCKASQDVITAVAWYQQKPGQSPKLLIYSASYRYTGVPDRFTGSGSGTDFTFTISSVQAEDLAVYFCQQHFGTPYTFGSGTKLEMKR | 0.328 nM | 0.000231 s⁻¹ | 704000 M⁻¹ s⁻¹ | 0.129 nM | 4.63e-05 s⁻¹ | 358000 M⁻¹ s⁻¹ | no binding (tested: 500 nM) | ≤ 9.7 nM |  |  |  |  |  | 
I23RB4 (antibody, mouse IgG2a, kappa, V domains shown, phage display; human V, mouse IgG2a/kappa) VH: QVQLVQSGAEVKKPGSSVKVSCKASGGTFKTYAIHWVRQAPGQGLEWMGWIIPIFGTANYAQKFQGRVTITADESTSTAYMELSSLRSEDTAVYYCARDGGYYGSRYYPRSYYFDYWGQGTLVTVSS VL: EIVLTQSPATLSLSPGERATLSCRASQSVSSYLAWYQQKPGQAPRLLIYDASNRATGIPARFSGSGSGTDFTLTISSLEPEDFAVYYCQQRSNWPLTFGQGTKVEIKR |  |  |  |  |  |  |  |  | 2990 MFI | 4390 MFI | 225000 MFI | 0.03 nM | 0.04 nM | 
I23RB7 (antibody, mouse IgG2a, kappa, V domains shown, phage display; mouse V, mouse IgG2a/kappa) VH: QIQLVQSGPELKKPGETVKISCKASGYTFTTYGMSWVKQAPGKGLKWMGWINTYSGVPTYADDFKGRFAFSLETSASTAYLQINNLKNEDTATYYCARRDRYGYVAGAFAYWGQGTLVTVSS VL: QIVLTQSPAIMSASPGEKVTMTCSASSSVSYMYWYQQKPGSSPRLLIYDTSNLASGVPVRFSGSGSGTSYSLTISRMEAEDAATYYCQQWSSYPWTFGGGTKLEIKR |  |  |  |  |  |  |  |  | 2230 MFI | 4320 MFI | 172000 MFI | 0.1 nM | 0.07 nM | 1 nM
I23RB165 (antibody, mouse IgG2a, kappa, V domains shown, mouse immunization; mouse IgG2a/kappa) VH: EVQLQQSGAELVRPGASVKLSCTASGFNIKDSLMHWVKQRPEQGLEWIGWIDPEDGKTKYAPKFQDKATITADTSSNTAYLQLSSLTSEDTAIYYCARREVLDYFDYWGQGTTLTVSS VL: DIVMTQSPASLAVSLGQRATISCRASKSVSTSGYSYMHWYQQKPGQPPKLLIYLASNLESGVPARFSGSGSGTDFTLNIHPVEEEDAATYYCQHSRELPLTFGAGTKLEMKR | 18.1 nM | 0.00806 s⁻¹ | 446000 M⁻¹ s⁻¹ | 29.1 nM | 0.00941 s⁻¹ | 324000 M⁻¹ s⁻¹ | no binding (tested: 500 nM) | ≤ 9.7 nM |  |  |  |  |  | 
I23RB173 (antibody, mouse IgG2a, kappa, V domains shown, mouse immunization; mouse IgG2a/kappa) VH: DVQLQESGPGLVKPSQSLSLTCSVTGYSITSGYYWNWIRQFPGNKLEWMGYISYDGGNNYNPSLKNRISITRDTSKNQFFLKLNSVTTEDTATYYCARDAGLLPYYAMDYWGQGTTLTVSS VL: DIKMTQSPAIMSASPGEKVTITCSASSSVSYMHWFQQKPGTSPKLWIYSTSNLASGVPARFSGSGSGTSYSLTISRMEAEDAATYYCQQRSSYPLTFGDGTKLEMKR | 25.7 nM | 0.00759 s⁻¹ | 296000 M⁻¹ s⁻¹ | 36.1 nM | 0.0103 s⁻¹ | 285000 M⁻¹ s⁻¹ | no binding (tested: 500 nM) | ≤ 9.7 nM |  |  |  |  |  | 
